Results on 1 molecule are retold here after PMC12804832.

The target of this series is T1, Msn2 DBD (Saccharomyces cerevisiae, UniProt P33748 643-704).
T1 sequence: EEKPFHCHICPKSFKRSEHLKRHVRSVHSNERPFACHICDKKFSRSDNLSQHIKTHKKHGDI
Kind of series: EMSA. In general terms: In EMSA bound probe runs differently from free probe, usually more slowly.

B1: 51 bp DNA without motif (dsDNA)
DNA 1: CCTGCCACCTACACATACTTCCTACACAACCTGAGTCGTATTAATTTCGCG
DNA 2: CGCGAAATTATACGACTCAAGTTGTGTAGGAAGTATGTGTAGGTGGCGAGG
As for B1, the binding result was “no binding”.
